Source: patent US20220041706A1 (published 2022)

Target: cynomolgus monkey FGF19 (cynomolgus monkey)
Assay: SPR

cynomolgus monkey FGF19 (cynomolgus monkey), sequence (chain, as listed by the source): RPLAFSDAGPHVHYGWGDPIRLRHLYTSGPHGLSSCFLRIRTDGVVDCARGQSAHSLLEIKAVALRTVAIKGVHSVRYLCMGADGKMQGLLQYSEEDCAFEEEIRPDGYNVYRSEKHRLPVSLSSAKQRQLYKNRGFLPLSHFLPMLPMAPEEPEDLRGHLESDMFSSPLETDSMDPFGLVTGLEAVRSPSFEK

Kd: 1.63 nM
B1: G1A8 (anti-FGF19 human IgG1 antibody, affinity-improved from 31A3) (antibody, V domains shown)
VH: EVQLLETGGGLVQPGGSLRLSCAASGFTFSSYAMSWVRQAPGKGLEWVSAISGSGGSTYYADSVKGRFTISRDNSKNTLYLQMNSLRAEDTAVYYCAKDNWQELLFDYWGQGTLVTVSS
VL: QAGLTQPASVSGSPGQSITISCTGTSSDVGGYNYVSWYQQHPGKAPKLMIYDVSNRPSGVSDRFSGSKSGNTASLTISGLQTEDEADYYCSSWTRSSGLVFGGGTQLTVLG
